Measured values taken from patent US20160083479A1 (AGENCY FOR SCIENCE TECHNOLOGY AND RESEARCH, published 2016).
No end group written: not given here. *: point of attachment. Biotin = O=C1N[C@H]2[C@H](CS[C@H]2CCCCC(=O)*)N1

Experiments:
peptide O27 = molecular target: T1, peptide O27; assay: Pepscan / alanine scan peptide ELISA on streptavidin plates, A450
T1 construct: Negative control peptide
T1 peptide: Biotin-SGSGQSEVHCIFSPQIEEP
Experimental: Variations of peptides O28 and O29, where each amino acid residue was sequentially substituted for an alanine residue, were synthesised. Streptavidin-coated plates (Pierce/Thermo Scientific, #15520) were blocked with 3% BSA/PBS at room temperature. The peptides were dissolved in DMSO and stored according to manufacturer's recommendation. Streptavidin-coated plates were coated with each peptide (5 μg/mL) overnight at room temperature. Wells were washed before hybridoma supernatant or purified monoclonal antibody was added to the each well. HRP-conjugated anti-mouse antibody was added to detect bound monoclonal antibodies. ELISA substrate (Bio-Rad #172-1067) solution was prepared freshly according to the manufacturer's instructions and added to the wells. Colour change was monitored by eye and the reaction was stopped by adding 100 mM sulphuric acid. Absorbance was read at 450 nm in a microplate reader (SPECTRAmax PLUS³⁸⁴, Molecular Device, U.S.A). The crystal structure of c-Met extracellular domain, accession number 1 SHY, was obtained from Protein Data Base (PDB). Computer imaging of the epitopes were analysed by PyMol (DeLano Scientific LLC, U.S.A) software.
Pepscan analysis was used to determine the region of c-Met α-chain bound by mAb 2. […] Binding of the antibody was detected by colorimetric assay and analysed by absorbance reading at […]. […]

peptide P7 = molecular target: T2, peptide P7; assay: titration of purified mAb 2 against peptides, ELISA A450; rank order
T2 sequence (peptide, biotin at the N-terminus, linked by the SGSG linker): SGSGCIFSPQAEEPSQCPD

peptide P9 = molecular target: T3, peptide P9; assay: as above
T3 sequence (peptide, biotin at the N-terminus, linked by the SGSG linker): SGSGCIFSPQIEAPSQCPD

peptide P15 = molecular target: T4, peptide P15; assay: as above
T4 sequence (peptide, biotin at the N-terminus, linked by the SGSG linker): SGSGCIFSPQIEEPSQCPA

peptide P10 = molecular target: T5, peptide P10; assay: as above
T5 sequence (peptide, biotin at the N-terminus, linked by the SGSG linker): SGSGCIFSPQIEEASQCPD

peptide O28 (human) = assay: as above
peptide P17 = molecular target: T6, peptide P17; assay: as above
T6 sequence (peptide, biotin at the N-terminus, linked by the SGSG linker): SGSGAIEEPSQCPDCVVSA

peptide P25 = molecular target: T7, peptide P25; assay: as above
T7 sequence (peptide, biotin at the N-terminus, linked by the SGSG linker): SGSGQIEEPSQCADCVVSA

peptide P20 = molecular target: T8, peptide P20; assay: as above
T8 sequence (peptide, biotin at the N-terminus, linked by the SGSG linker): SGSGQIEAPSQCPDCVVSA

peptide P19 = molecular target: T9, peptide P19; assay: as above
T9 sequence (peptide, biotin at the N-terminus, linked by the SGSG linker): SGSGQIAEPSQCPDCVVSA

binding result (peptide O27): no binding
Increase mAb 2 binding in ascending order (rank) (peptide P7): 8
Increase mAb 2 binding in ascending order (rank) (peptide P9): 4
Increase mAb 2 binding in ascending order (rank) (peptide P15): 10
Increase mAb 2 binding in ascending order (rank) (peptide P10): 7
Increase mAb 2 binding in ascending order (rank) (peptide O28 (human)): 11
Increase mAb 2 binding in ascending order (rank) (peptide P17): 5
Increase mAb 2 binding in ascending order (rank) (peptide P25): 3
Increase mAb 2 binding in ascending order (rank) (peptide P20): 9
Increase mAb 2 binding in ascending order (rank) (peptide P19): 6
B1: mAb 2 (antibody, IgG1, V domains shown)
VH: QVQLKESGGGLVQPGGSLTLSCATSGFTFTDHYMSWVRQPPGKALEWLAFIRNKAKGYTTEYNASVRGRFTISRDNSQNIVYLQMNTLRTEDSATYYCARDGVGIAYWGQGTLVTVSA
VL: SIVMTQSPLSLPVSLGDQASISCRSSQSLENINGNTYLNWYFQKPGQSPQLLIYRVSNRVSGVLDRFSGSGSGTDFTLKITRVEAEDLGVYFCLQVTHVPWTFGGGTKLEIK
notes: Murine monoclonal antibody purified from ascites (or hybridoma supernatant in the first Pepscan); constant regions are not; also called full length murine mAb 2
